Test results: US10942185B2, “Therapeutic and diagnostic methods for manipulating phagocytosis through calreticulin and low density lipoprotein-related receptor” (The Board of Trustees of the Leland Stanford Junior …, priority 2010, dated 2021)
“Also recorded” adds a separate entry of the source.

Tests used:
Molm 13 cells = test: Cell surface calreticulin on staurosporine-treated Molm 13 cells, flow cytometry; format: cell-based, human; conditions: live cells, compared to isotype control
Description: (§1) FIGS. 14A-14B. […] Live cells were stained with anti-calreticulin (CRT) antibody conjugated by a fluorophore. […] Live cells were stained with LRP1 cluster IV-Fc protein followed by a secondary anti-Fc antibody conjugated to a fluorophore.

[1] = target: T1, Calreticulin on the cell surface of Molm 13 cells (Homo sapiens, UniProt P27797); test: LRP1 cluster IV-Fc binding to staurosporine-treated Molm 13 cells, flow cytometry
T1 construct: endogenous in cells; host or cells: Molm 13 (human AML cell line), treated with staurosporine
T1 sequence (P27797 18-417): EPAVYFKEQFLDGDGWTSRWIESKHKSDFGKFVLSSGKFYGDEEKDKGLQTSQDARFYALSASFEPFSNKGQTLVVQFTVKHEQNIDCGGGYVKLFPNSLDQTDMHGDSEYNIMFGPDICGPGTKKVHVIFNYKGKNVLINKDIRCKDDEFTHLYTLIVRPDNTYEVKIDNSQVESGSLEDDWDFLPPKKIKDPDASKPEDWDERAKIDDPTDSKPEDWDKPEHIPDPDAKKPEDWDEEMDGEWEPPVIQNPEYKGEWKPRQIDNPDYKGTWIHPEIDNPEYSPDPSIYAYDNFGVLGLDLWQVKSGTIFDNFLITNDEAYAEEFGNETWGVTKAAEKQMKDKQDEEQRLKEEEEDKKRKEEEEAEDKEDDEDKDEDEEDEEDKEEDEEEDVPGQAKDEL
Description: as §1

[2] = test system: primary human cancer cells; test: In vitro phagocytosis assay, primary human cancer cells with human macrophages; format: cell-based; conditions: two hours; for phagocytosis of primary human cancer cells, agent alone: compared to IgG1 isotype control
Experimental: (§2) Given the known role of CRT as a pro-phagocytic signal, its correlation with CD47 expression (FIG. 2A), and its ability to be counteracted by CD47 (FIG. 2), we investigated whether the expression of cell surface CRT on cancer but not normal cells could explain the selective targeting of tumor cells by a blocking anti-CD47 antibody. In vitro phagocytosis assays were performed by incubating primary human normal cells or cancer cells with human macrophages in the presence of anti-CD47 antibody. CD47 was expressed on all normal and cancer cells profiled (FIG. 2A and FIG. 7, 9), but expression of calreticulin was primarily restricted to tumor cells (FIG. 1A,B). […] (FIG. 3C).
(§3) Generation of human macrophages and in vitro phagocytosis assays were performed as previously described. Primary human samples or cell lines were incubated with 10 μg/ml IgG1 isotype control (Ebiosciences), 10 μg/ml anti-CD47 antibody (clone B6H12.2, ATCC), 4 μg/ml calreticulin blocking peptide (MBL International Corporation), 10 μg/ml RAP (Fitzgerald Industries International), or 125 μg/ml recombinant CRT human protein (Thermo Scientific). Per MBL, confirmation of blocking activity was performed by Western blot analysis, verified by incubation of an anti-CRT antibody with 5 times higher concentration of the peptide and performing a Western blot analysis to determine if the specific band had been diminished. Cells were then analyzed by fluorescence microscopy to determine the phagocytic index (number of cells ingested per 100 macrophages).

NBM cells = test: In vitro phagocytosis assay, human NBM cells with human macrophages; format: cell-based; conditions: vs vehicle or IgG1 isotype control
Description: Next, the relationship between the level of tumor cell surface CRT expression and level of phagocytosis by anti-CD47 antibody was investigated. Cell surface CRT expression on tumor cells positively correlated with the degree of anti-CD47 antibody mediated phagocytosis, regardless of tumor cell type (FIG. 3D). Finally, given that normal cells express minimal levels of cell surface CRT, we investigated whether the addition of CRT to the surface of these cells could enable phagocytosis.
as §3

[3] = test system: primary human normal cells; test: In vitro phagocytosis assay, normal human tissue cells with human macrophages; format: cell-based; conditions: several normal human tissue types, vs IgG1 isotype control
Experimental: as §2
as §3, with “Per MBL, confirmation of blocking activity was performed by Western blot analysis, verified by incubation of an anti-CRT antibody with 5 times higher concentration of the peptide and performing a Western blot analysis to determine if the specific band had been diminished.” left out

## CN[C@@H]1C[C@H]2O[C@@](C)([C@@H]1OC)n1c3ccccc3c3c4c(c5c6ccccc6n2c5c31)C(=O)NC4 [staurosporine]
Molm 13 cells
  cell surface calreticulin: increase in cell surface calreticulin

## LRP1 cluster IV-Fc protein: LRP1 cluster IV fused to Fc, used to stain cell surface calreticulin
[1]; live cells, secondary anti-Fc antibody, flow cytometry
  binding to staurosporine-treated Molm 13 cells: increase in the binding

## RAP: receptor-associated protein (RAP), an inhibitor of LRP (Fitzgerald Industries International)
[2]; in the presence of anti-CD47 antibody
  anti-CD47 antibody-mediated phagocytosis of cancer cells: completely abrogated in most cases; also recorded: completely abrogated anti-CD47 antibody-mediated phagocytosis
[2]
  phagocytosis of primary human cancer cells, agent alone: did not enable phagocytosis
[2]; listed as LRP
  phagocytosis of primary human cancer cells, agent alone: no effect on phagocytosis
[1]; staurosporine-treated Molm 13 cells
  blocking of LRP1 cluster IV-Fc protein binding: can be blocked

B1: exogenous CRT: recombinant CRT human protein (Thermo Scientific), adsorbs onto the cellular surface and directly binds LRP (protein, UniProt P27797 18-417, looked up)
Calreticulin: T1 sequence (P27797 18-417)
NBM cells
  phagocytosis of NBM cells: enabled phagocytosis of NBM cells; also recorded: enabled increased phagocytosis
NBM cells; listed as Exogenous CRT
  phagocytosis of NBM cells: enabled increased phagocytosis of NBM cells

B2: anti-CD47 antibody: blocking monoclonal anti-human CD47 antibody, clone B6H12.2, ATCC (antibody, V domains shown)
VH: EVQLVESGGDLVKPGGSLKLSCAASGFTFSGYGMSWVRQTPDKRLEWVATITSGGTYTYYPDSVKGRFTISRDNAKNTLYLQIDSLKSEDTAIYFCARSLAGNAMDYWGQGTSVTVSS
VL: DIVMTQSPATLSVTPGDRVSLSCRASQTISDYLHWYQQKSHESPRLLIKFASQSISGIPSRFSGSGSGSDFTLSINSVEPEDVGVYYCQNGHGFPRTFGGGTKLEIK
[2]
  phagocytosis of primary human cancer cells, agent alone: robustly phagocytosed; also recorded: are phagocytosed; also recorded: enabled phagocytosis of cancer cells
[3]
  phagocytosis of normal human cells: not phagocytosed; also recorded: No difference in phagocytosis
NBM cells
  phagocytosis of NBM cells: did not; also recorded: No difference in phagocytosis
